Data from patent publication US20180112219.

What was measured:
[1] = tested on: 5' NS-TALEN (in cells) (artificial (TALE-FokI)); experiment: cell_activity; conditions: NS pair in HeLa-tat-III/LTR/d1EGFP cells; 2 of 23 clones mutated
[2] = tested on: 5' NS-TALEN (artificial (TALE-FokI)); experiment: cleavage_in_vitro; conditions: pair with 3' HT-TALEN; 747 bp PCR template, 30 C

With “TCTCTGGTTAGACCAGATCT (double strand) [5' TALE binding target, HIV-1 LTR TAR]” as the sequence, how does the activity [1] read?
Its activity is 30 % GFP loss.

What about the activity [2] of the same sequence?
Its activity is 42 % cleavage.
